Measured values reported in patent US20030119727A1 (Genentech, published 2003).

T1: recombinant human Factor VIIa (human), P08709
T1 chain 1: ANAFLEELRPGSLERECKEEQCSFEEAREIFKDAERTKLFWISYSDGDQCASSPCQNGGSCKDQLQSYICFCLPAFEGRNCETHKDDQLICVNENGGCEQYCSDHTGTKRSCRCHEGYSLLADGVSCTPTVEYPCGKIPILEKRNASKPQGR
T1 chain 2: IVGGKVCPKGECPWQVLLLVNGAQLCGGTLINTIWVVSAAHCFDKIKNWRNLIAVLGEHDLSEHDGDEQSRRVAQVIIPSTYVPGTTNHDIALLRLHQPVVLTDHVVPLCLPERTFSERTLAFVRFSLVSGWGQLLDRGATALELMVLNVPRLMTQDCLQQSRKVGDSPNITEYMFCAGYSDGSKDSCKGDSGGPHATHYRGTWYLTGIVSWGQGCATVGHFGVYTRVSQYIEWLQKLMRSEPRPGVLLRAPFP


Biological target: T1, recombinant human Factor VIIa (human), …
Test: competition ELISA
Conditions: modification not given

| IC50 | Binder |
| --- | --- |
| 0.003 µM | ALCDDPRIDRWYCQFVEG [TF121] |
| 0.248 µM | LCDDPRVDRWYCQFVEG [TF77] |
| > 100 µM | ALCDDPRVDRHYCQFVEG [TF152] |
| 0.085 µM | ALCDDPRVDRWYCYFVEG [TF132] |
| 0.02 µM | ALCDDARVDRWYCQFVEG [TF178] |
| 0.141 µM | ALCDDPRLDRWYCQFVEG [TF128] |
| 90.3 µM | CDDPRVDRWYCQFVEG [TF156] |
| 20 µM | ALCDDPRVDRWYCQAVEG [TF115] |
| 0.123 µM | ALCDRPRVDRWYCQFVEG [TF95] |
| 10.5 µM | ALCDDPRVDPWYCQFVEG [TF113] |
| 1.2 µM | ALCDDPRVNRWYCQFVEG [TF97] |
| 0.396 µM | ALCDDPRVDAWYCQFVEG [TF112] |
| 8.62 µM | ALCDDPRVQRWYCQFVEG [TF161] |
| 0.485 µM | ALCDDPRVDRWFCQFVEG [TF144] |
| 0.298 µM | ALCDDPRVDRWYCQFV [TF89] |
| 0.11 µM | ALCDDPAVDRWYCQFVEG [TF109] |
| 24 µM | AMCDDPRVDRWYCQFVEG [TF319] |
| 0.093 µM | ALCDDPRVDKWYCQFVEG [TF130] |
| 0.359 µM | ALCDDPRVSRWYCQFVEG [TF162] |
| 0.168 µM | ALCDDPRVDRWYCQF [TF90] |
| 100 µM | ALCDDPRVDRWYC [TF180] |
| 0.002 µM | ALCDNPRVDRWYCQFVEG [TF106] |
| > 50 µM | ALCDDPRVDRWACQFVEG [TF145] |
| 42 µM | AKCDDPRVDRWYCQFVEG [TF320] |

| IC50 | Binder |
| --- | --- |
| 9.78 µM | AACDDPRVDRWYCQFVEG [TF155] |
| 0.988 µM | AVCDDPRVDRWYCQFVEG [TF317] |
| 0.109 µM | ALCDEPRVDRWYCQFVEG [TF120] |
| 0.104 µM | ALCDAPRVDRWYCQFVEG [TF108] |
| 0.005 µM | VGALCDDPRVDRWYCQFVEG [TF74] |
| 2.3 µM | EGTLCDDPRIDRWYCMFSGV [TF58] |
| 0.006 µM | VGALCDDPRVDRWYCQFVE [TF75] |
| 2.56 µM | ALCDDPRVDQWYCQFVEG [TF98] |
| 0.698 µM | ALCDDPRVDRWYCQYVEG [TF146] |
| > 100 µM | ALADDPRVDRWYAQFVEG [TF119] |
| 0.716 µM | ALCDDPRADRWYCQFVEG [TF129] |
| > 50 µM | ALCDDPRVDRAYCQFVEG [TF114] |
| 0.028 µM | ALCRDPRVDRWYCQFVEG [TF127] |
| 0.147 µM | ALCDDPRVERWYCQFVEG [TF111] |
| 20.3 µM | ALCDDPRVDRWYCQQVEG [TF191] |
| 0.032 µM | ALCDDPRVDRWYCAFVEG [TF179] |
| 0.438 µM | ALCDDPRVDRWYCQLVEG [TF189] |
| 4.96 µM | ALCDDPRVDRFYCQFVEG [TF131] |
| 0.33 µM | ALCDDPRVARWYCQFVEG [TF110] |
| 0.01 µM | ALCADPRVDRWYCQFVEG [TF107] |
| 100 µM | LCDDPRIDRWYCQF [TF63] |
| 0.257 µM | ALCDDPEVDRWYCQFVEG [TF96] |
| 250 µM | LCDDPRIDRWYCMF [TF61] |
| 75 µM | ATCDDPRVDRWYCQFVEG [TF318] |
